# Measured values published in US20140031247.
# Legend:
# [1] = tested on: N1-Sb1 substrate with P2 substitution C1752M
# [2] = tested on: biotinylated recombinant Notch1 substrate N1-Sb1
# [3] = tested on: N1-Sb1 substrate with P2 substitution C1752A
# [4] = tested on: N1-Sb1 substrate with P2 substitution C1752V
# Sequence of biotinylated recombinant Notch1 substrate N1-Sb1 (chain, as listed by the source): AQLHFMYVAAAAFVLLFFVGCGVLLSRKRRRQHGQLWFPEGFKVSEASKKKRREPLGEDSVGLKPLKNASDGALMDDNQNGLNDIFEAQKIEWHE
Substance,rate of γ-secretase cleavage compared with WT substrate [1],Km [2],apparent Km [2],rate of γ-secretase cleavage compared with WT substrate [3],rate of γ-secretase cleavage compared with WT substrate [4]
γ-secretase with M146V PS1 (membrane of M146V PS1 knock-in mouse brain),enhanced activity for M146V knock-in PS1 (127.4±3.7%),"The Km values of WT and M146V PS1 are 60 and 48 nM, respectively",–,–,–
γ-secretase of HeLa cell membrane,–,–,the apparent Km of N1-Sb1 cleavage by γ-secretase is 0.15±0.03 µM,–,–
γ-secretase with wild type PS1 (membrane of knock-in wild type PS1 mouse brain),C1752M substrate also had no effect on WT PS1 (left panel),"The Km values of WT and M146V PS1 are 60 and 48 nM, respectively",–,–,–
γ-secretase with M146L PS1 (membrane of N2a cells stably expressing M146L PS1),significantly enhanced activity for M146L (166.4±6.1%),"the Km values for N1-Sb1 cleavage by PS1 wild-type, M146L, and E280A FAD mutants are 70, 49, and 50 nM, respectively",–,significantly reduced reactivity for all three forms of γ-secretase (20-30% remaining),considerably increased reactivity for M146L PS1 γ-secretase (141.3±17.9%0
γ-secretase with E280A PS1 (membrane of N2a cells stably expressing E280A PS1),E280A (185.5±7.4%) PS1,"the Km values for N1-Sb1 cleavage by PS1 wild-type, M146L, and E280A FAD mutants are 70, 49, and 50 nM, respectively",–,significantly reduced reactivity for all three forms of γ-secretase (20-30% remaining),had no effect on WT (left panel) and E280A PS1 (right panel)
γ-secretase with wild-type PS1 (membrane of N2a cells stably expressing WT PS1),C1752M substrate had no effect on WT (left panel),"the Km values for N1-Sb1 cleavage by PS1 wild-type, M146L, and E280A FAD mutants are 70, 49, and 50 nM, respectively",–,significantly reduced reactivity for all three forms of γ-secretase (20-30% remaining),had no effect on WT (left panel) and E280A PS1 (right panel)
